From patent publication US20210230288A1

Columns and labels:
IgG Fc (control) [1] = assay: phage ELISA on control (IgG Fc), lower end
IgG Fc (control) [2] = assay: phage ELISA on control (IgG Fc), upper end
IgG Fc (control) [3] = assay: phage ELISA on control (IgG Fc), 89 identical clones

B1: bb10 (SEQ ID NO 19), phage clone (designed binder)
chain: MGSWAEFKQRLAAIKTRLEALGGSEAELAAFLGEIWAFEMELAAYKGKGNPEVEALGREAAAIRMELQAYRHN
- ELISA absorbance (IgG Fc (control) [1]): 0.056 OD
- ELISA absorbance (IgG Fc (control) [2]): 0.125 OD
- ELISA absorbance (IgG Fc (control) [3]): 0.067 OD
